Data set [1] concerns T1, OMNI-50 (Ezakiella peruensis strain M6.X2).
T1 sequence: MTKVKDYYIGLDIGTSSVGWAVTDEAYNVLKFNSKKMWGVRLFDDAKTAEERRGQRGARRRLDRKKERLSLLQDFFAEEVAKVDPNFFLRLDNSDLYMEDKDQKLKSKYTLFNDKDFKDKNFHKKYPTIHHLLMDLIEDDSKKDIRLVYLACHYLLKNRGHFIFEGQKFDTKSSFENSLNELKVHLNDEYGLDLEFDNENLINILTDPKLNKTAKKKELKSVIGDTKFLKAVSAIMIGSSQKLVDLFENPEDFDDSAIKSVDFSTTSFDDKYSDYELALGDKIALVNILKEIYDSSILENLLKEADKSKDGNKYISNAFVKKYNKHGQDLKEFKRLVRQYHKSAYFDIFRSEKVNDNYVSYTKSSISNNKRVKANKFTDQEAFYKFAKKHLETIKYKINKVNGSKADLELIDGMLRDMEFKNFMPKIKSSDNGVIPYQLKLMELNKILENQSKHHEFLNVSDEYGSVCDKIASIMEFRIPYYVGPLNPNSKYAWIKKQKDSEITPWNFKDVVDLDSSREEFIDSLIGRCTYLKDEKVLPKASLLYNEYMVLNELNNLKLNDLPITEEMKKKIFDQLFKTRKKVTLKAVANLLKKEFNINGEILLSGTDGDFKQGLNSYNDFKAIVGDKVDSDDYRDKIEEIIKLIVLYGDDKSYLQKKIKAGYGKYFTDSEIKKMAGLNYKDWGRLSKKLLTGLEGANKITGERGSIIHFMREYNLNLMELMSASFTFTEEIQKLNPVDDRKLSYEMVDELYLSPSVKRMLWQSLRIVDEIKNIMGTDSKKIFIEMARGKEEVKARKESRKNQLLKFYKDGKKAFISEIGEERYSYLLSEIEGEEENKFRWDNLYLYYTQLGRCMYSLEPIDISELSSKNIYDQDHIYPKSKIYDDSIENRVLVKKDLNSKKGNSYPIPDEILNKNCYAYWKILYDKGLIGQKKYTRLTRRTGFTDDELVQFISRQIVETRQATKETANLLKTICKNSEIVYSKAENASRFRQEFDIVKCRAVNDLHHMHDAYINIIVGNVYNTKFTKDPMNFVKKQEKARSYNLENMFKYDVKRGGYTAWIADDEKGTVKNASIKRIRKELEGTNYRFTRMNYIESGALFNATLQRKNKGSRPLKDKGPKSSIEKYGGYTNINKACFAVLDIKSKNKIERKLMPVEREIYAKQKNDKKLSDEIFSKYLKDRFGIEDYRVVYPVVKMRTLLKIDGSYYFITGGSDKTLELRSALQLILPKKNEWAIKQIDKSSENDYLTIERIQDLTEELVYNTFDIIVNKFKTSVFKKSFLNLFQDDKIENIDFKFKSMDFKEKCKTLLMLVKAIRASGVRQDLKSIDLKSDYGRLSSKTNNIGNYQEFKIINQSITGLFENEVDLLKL
Description: cleavage_in_vitro. The settings on record: TXTL PAM depletion, PAM NGG; some activity with NAG and NGA; sgRNA V1 and V2.

Data set [2] addresses T2, OMNI-50 (Ezakiella peruensis strain M6.X2).
T2 chain: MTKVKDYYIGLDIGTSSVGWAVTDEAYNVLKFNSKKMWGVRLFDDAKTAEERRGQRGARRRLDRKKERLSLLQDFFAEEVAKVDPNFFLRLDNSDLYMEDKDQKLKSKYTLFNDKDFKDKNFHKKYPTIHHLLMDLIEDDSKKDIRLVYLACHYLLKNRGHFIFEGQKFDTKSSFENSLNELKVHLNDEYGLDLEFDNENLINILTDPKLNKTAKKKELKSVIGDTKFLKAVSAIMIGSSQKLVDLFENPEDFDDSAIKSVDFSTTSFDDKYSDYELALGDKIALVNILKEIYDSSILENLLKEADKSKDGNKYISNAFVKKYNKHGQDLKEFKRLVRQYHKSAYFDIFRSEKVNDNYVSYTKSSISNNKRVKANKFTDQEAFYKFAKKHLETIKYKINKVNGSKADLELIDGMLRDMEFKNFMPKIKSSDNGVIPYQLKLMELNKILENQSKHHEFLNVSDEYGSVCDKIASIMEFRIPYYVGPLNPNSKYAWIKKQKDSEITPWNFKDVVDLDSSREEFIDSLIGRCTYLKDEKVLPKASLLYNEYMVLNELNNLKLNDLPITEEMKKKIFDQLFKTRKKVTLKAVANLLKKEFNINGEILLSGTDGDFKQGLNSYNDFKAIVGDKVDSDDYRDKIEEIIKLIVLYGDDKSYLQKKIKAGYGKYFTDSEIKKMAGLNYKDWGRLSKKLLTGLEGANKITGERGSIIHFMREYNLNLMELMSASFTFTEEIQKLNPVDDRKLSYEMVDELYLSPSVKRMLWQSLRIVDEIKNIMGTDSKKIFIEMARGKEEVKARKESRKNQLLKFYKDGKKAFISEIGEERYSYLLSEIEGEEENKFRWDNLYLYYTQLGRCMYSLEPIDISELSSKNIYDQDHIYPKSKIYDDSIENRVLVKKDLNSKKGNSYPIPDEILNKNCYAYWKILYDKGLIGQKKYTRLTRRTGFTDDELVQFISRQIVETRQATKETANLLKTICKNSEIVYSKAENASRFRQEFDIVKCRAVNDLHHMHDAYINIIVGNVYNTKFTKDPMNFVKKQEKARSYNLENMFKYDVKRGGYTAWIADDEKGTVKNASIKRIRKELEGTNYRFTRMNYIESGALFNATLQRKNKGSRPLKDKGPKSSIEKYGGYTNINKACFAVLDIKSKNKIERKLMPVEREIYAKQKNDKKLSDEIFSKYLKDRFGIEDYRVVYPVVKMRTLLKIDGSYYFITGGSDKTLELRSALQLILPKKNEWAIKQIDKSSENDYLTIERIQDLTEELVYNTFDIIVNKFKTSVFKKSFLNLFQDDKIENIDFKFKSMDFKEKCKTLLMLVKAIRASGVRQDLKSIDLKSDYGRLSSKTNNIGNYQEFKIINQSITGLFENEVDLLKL
The data set is described as follows: cell_activity; PAM NGG; RNP in U2OS. The settings on record: tags: SV40 NLS N-terminal, HA-SV40 NLS-8xHis C-terminal (pET9a). The protocol:
FIG. 5A-FIG. 5D: OMNI-50 activity Assay as RNP. OMNI-50 nuclease was over-expressed and purified. The purified protein was complexed with synthetic sgRNA to form RNPs. For the in-vitro assays (FIG. 5A and FIG. 5B) RNPs were incubated with a linear DNA template containing the corresponding target and PAM sequences (listed in Table 5). Activity was verified by cleavage of the linear template. For the in-vivo assays (FIG. 5C and FIG. 5D), U2OS cells were electroporated with RNPs and activity was determined by measurement of indel frequency by NGS. FIG. 5A: Activity assay of OMNI-50 RNP with different spacer lengths (17-23 bps) of guide 35 (Table 10). FIG. 5B: Decreasing amounts of RNPs (4 pmol, 2 pmol, 1.2 pmol, 0.6 pmol and 0.2 pmol) with spacer lengths 20-23 nts were incubated with 100 ng DNA target template. FIG. 5C: Activity assay for OMNI-50 as RNP in U2OS cells: RNPs with spacer lengths 17-23 bps were electroporated into U2OS cell line and editing levels (indels) measured by NGS. FIG. 5D: Activity assay for OMNI-50 as RNP in U2OS cells: RNPs with ELANE g35 sgRNA V1-V4 were electroporated into U2OS cell line and editing levels (indels) measured by NGS.
Spacer length optimization was also performed in a mammalian cell context. RNPs were assembled by mixing 100 uM nuclease with 120 uM of synthetic guide with different spacer lengths (17-23 nt, Table 5) and 100 uM Cas9 electroporation enhancer (IDT). After 10 minutes of incubation at room temperature, the RNP complexes were mixed with 200,000 pre-washed U2OS, iPSC, or HSC cells and electroporated using Lonza SE or P3 Cell Line 4D-Nucleofector™ X Kit with the DN100 or CA137 program, respectively, according to the manufacture's protocol. At 72 h cells were lysed and their genomic DNA was used in a PCR reaction to amplify the corresponding putative genomic targets. Amplicons were subjected to NGS and the resulting sequences were then used to calculate the percentage of editing events.

“GGAAGAGCAGAGCCUUGGUCUCGUUUGAGAGUUAUGUAAGAAAUUACAUGACGAGUUCAAAUAAAAAUUUAUUCAAACCGCCUAUUUAUAGGCCGCAGAUGUUCUGCAUUAUGCUUGCUAUUGCAAGCUUUUUU / GGAAGAGCAGAGCCTTGGTCTCNNNNNNNN / NNNNNNNNGAGACCAAGGCTCTGCTCTTCC [T2 sgRNA V2 ; T2 protospacer 8N PAM library]” displayed an activity (1-depletion score) in data set [1] of 0.98.

B1: ELANE g35 sgRNA V2 22 nt spacer ; ELANE g35 on-target (ssRNA ; dsDNA)
RNA: GCAGUCCGGGCUGGGAGCGGGUGUUUGAGAGUUAUGUAAGAAAUUACAUGACGAGUUCAAAUAAAAAUUUAUUCAAACCGCCUAUUUAUAGGCCGCAGAUGUUCUGCAUUAUGCUUGCUAUUGCAAGCUUUUUU
DNA 1: CTGTTGCTGCAGTCCGGGCTGGGAGCGGGTGGGGAGCAGAGGG
DNA 2: CCCTCTGCTCCCCACCCGCTCCCAGCCCGGACTGCAGCAACAG
modifications: three 2'-OMe 3'-PS at 5' and 3' ends
B1 returned an activity in data set [2] of 90.9 % indels.

B2: ELANE g35 sgRNA V2 20 nt spacer ; ELANE g35 on-target (ssRNA ; dsDNA)
RNA: AGUCCGGGCUGGGAGCGGGUGUUUGAGAGUUAUGUAAGAAAUUACAUGACGAGUUCAAAUAAAAAUUUAUUCAAACCGCCUAUUUAUAGGCCGCAGAUGUUCUGCAUUAUGCUUGCUAUUGCAAGCUUUUUU
DNA 1: CTGTTGCTGCAGTCCGGGCTGGGAGCGGGTGGGGAGCAGAGGG
DNA 2: CCCTCTGCTCCCCACCCGCTCCCAGCCCGGACTGCAGCAACAG
modifications: three 2'-OMe 3'-PS at 5' and 3' ends
B2 had an activity in data set [2] of 43.8 % indels.

B3: ELANE g35 sgRNA V2 17 nt spacer ; ELANE g35 on-target (ssRNA ; dsDNA)
RNA: CCGGGCUGGGAGCGGGUGUUUGAGAGUUAUGUAAGAAAUUACAUGACGAGUUCAAAUAAAAAUUUAUUCAAACCGCCUAUUUAUAGGCCGCAGAUGUUCUGCAUUAUGCUUGCUAUUGCAAGCUUUUUU
DNA 1: CTGTTGCTGCAGTCCGGGCTGGGAGCGGGTGGGGAGCAGAGGG
DNA 2: CCCTCTGCTCCCCACCCGCTCCCAGCCCGGACTGCAGCAACAG
modifications: three 2'-OMe 3'-PS at 5' and 3' ends
On to B3, for which, in data set [2], the activity was determined as 0.54 % indels.

The values above are taken from patent US20220202913, “NOVEL OMNI-50 CRISPR NUCLEASE” (EmendoBio Inc., published 2022).
